{"source": "paper PMC4507496", "about": "(Biochemical and biophysical research communications, 2015)", "binders": {"B1": {"name": "GST-ATG3 (enzyme)", "chain": "not shown"}}, "target": "T1, ATG7 W243A (human, UniProt O95352 1-703, W243A)", "T1 sequence (looked up)": "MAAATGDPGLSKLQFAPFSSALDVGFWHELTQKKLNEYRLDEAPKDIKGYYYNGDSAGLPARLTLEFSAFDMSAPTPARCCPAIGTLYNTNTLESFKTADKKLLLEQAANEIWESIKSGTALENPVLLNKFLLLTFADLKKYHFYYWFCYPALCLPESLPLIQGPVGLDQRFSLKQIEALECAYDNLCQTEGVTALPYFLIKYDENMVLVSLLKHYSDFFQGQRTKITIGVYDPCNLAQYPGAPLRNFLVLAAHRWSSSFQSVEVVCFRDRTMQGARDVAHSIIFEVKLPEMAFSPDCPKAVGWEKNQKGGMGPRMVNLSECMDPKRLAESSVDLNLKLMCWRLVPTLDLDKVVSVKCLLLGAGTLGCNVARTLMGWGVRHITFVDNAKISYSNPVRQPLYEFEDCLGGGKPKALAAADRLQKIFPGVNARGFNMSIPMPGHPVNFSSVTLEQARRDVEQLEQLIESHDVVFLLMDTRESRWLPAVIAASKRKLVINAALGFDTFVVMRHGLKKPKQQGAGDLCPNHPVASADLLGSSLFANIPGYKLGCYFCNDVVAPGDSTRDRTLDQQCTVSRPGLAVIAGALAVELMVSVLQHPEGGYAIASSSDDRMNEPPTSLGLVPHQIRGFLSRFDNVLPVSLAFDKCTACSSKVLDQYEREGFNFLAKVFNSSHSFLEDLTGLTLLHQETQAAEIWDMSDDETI", "experiment": "pull-down"}
{"binder": "B1", "values": [{"measurement": "binding result", "result": "binds"}]}
